Measured values reported in patent publication US20180214548A1 (SHANGHAI YUNYI HEALTHCARE AND TECHNOLOGY, published 2018).

Key:
[1] = molecular target: T1, cyno PD-1^ECD-hFc protein (cyno monkey, UniProt B0LAJ3 25-167); assay: ELISA, coated cyno PD-1ECD-hFc; antibody 0.01 nM
T1 construct: Prepared by the method for Immunogen A; also called Cyno Monkey PD-1^ECD-hFc; cyno monkey PD-1-hFc; not shown: human IgG Fc fragment (hFc) and its junction to the ECD
Protocol: (§1) 100 uL of the diluted recombinant proteins were added to each well of 96-well plate. The plates were sealed with plastic film and incubated at 4° C. overnight. The plates were washed twice with wash buffer (PBS+0.01% (v/v) Tween20), and incubated with blocking buffer (PBS+0.01% (v/v) Tween20+1% (w/w) BSA) at room temperature for 2 hours. The blocking buffer was aspirated away, and 100 uL of purified anti-PD-1 antibodies were added to each well and incubated for 2 hours at 37° C. The plates were washed three times with wash buffer (PBS+0.01% (v/v) Tween20). HRP-conjugated secondary antibody (Sigma) was added to each well and incubated for 2 hours at 37° C. After the plates were washed three times with wash buffer, 100 uL TMB substrate was added to each well and incubated for 30 minutes at room temperature. 100 uL stop solution (0.1N HCl) was added to each well to stop the reaction. The absorbance at 450 nm was measured with an ELISA plate reader (384plus SpectraMax, Molecular Devices).

[2] = molecular target: T2, human PD-1^ECD-hFc protein (Immunogen A) (human, UniProt Q15116 25-167); assay: protein-based receptor-ligand blocking ELISA: coated PD-1ECD-hFc, blocked ligand biotinylated PD-L2ECD, streptavidin-HRP
T2 construct: Biotinylated for the Octet assay; also called PD-1-hFc; hPD-1^ECD-hFc; not shown: human IgG Fc fragment (hFc)
T2 sequence (Q15116 25-167): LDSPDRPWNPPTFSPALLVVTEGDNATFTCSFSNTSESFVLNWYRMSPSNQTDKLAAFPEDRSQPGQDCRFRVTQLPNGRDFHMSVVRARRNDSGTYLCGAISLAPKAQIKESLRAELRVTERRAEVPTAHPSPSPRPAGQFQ
Protocol: (§2) Purified PD-1^ECD-hFc (Example 2) was diluted with PBS to a final concentration of 1.0 ug/mL, and 100 uL diluted PD-1^ECD-hFc were added to each well of a 96-well plate that was then sealed with plastic film and incubated at 4° C. overnight. The plate was washed twice with wash buffer (PBS+0.01% (v/v) Tween 20) and incubated with blocking buffer (PBS+[…]) at room temperature for 2 hours. The blocking buffer was aspirated, and 50 uL purified anti-PD-1 antibodies from Example 2 were added to each well of 96-well plate. […] The plate was washed three times with wash buffer (PBS+0.01% (v/v) Tween 20). 100 uL HRP-conjugated streptavidin (Sigma) were then added to each well and incubated at 37° C. for 2 hours. The plate was then washed three times with wash buffer, and 100 uL TMB substrate were added to each well. After 30 minutes of incubation at room temperature, the reaction was stopped by adding 100 uL stop solution (0.1N HCl). The absorbance at OD450 nm was measured with an ELISA plate reader (384plus SpectraMax, Molecular Devices).

[3] = molecular target: T1, cyno PD-1^ECD-hFc protein; assay: ELISA, coated cyno PD-1ECD-hFc; antibody 0.1 nM
Protocol: as §1

[4] = molecular target: T3, full length human PD-1 on cells (human, UniProt Q15116 25-288); assay: flow cytometry, CHO-K1-hPD-1 cells; antibody 1 nM
T3 construct: Also used here for PD-1 on human T cells/PBMC; also called CHO-K1-hPD-1; hPD-1
T3 sequence (Q15116 25-288 limits assumed): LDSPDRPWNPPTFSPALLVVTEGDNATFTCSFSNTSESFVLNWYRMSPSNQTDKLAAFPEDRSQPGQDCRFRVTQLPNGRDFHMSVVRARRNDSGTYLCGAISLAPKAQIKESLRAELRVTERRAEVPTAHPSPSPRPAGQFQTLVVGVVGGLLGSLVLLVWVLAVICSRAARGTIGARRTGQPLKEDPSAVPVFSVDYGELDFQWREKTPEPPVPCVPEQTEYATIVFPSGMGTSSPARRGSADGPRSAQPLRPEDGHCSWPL
Source text: (§3) CHO-K1 cells were stably transfected with pIRES plasmid containing the nucleic acid sequence encoding full length human PD-1 (see Example 2, step 2) to generate CHO-K1 cells stably expressing human PD-1 (herein referred to as CHO-K1-hPD-1 cells). Other CHO-K1 were stably transfected with pIRES plasmid containing the nucleic acid sequence encoding full length cyno PD-1 to generate CHO-K1 cells stably expressing cyno PD-1 (herein referred to as CHO-K1-cPD-1 cells). CHO-K1-hPD-1 and CHO-K1-cPD-1 cells were cultured and expanded in T-75 culture flasks to 90% confluence. The culture media was aspirated, and the cells were washed twice with HBSS (Hanks Balanced Salt Solution, Invitrogen). The cells were treated with enzyme-free cell dissociation solution (Versene solution, Invitrogen) and collected. The cells were then washed twice with HBSS, cell counts were determined, and cells were resuspended with HBSS at 2×10⁶ cells/mL. Goat serum was added to the cell suspension to a final concentration of 1%, and the cells were blocked for 30 minutes on ice and then washed twice with HBSS. The cells were collected after centrifugation and resuspended in FACS buffer (HBSS+1% BSA, v/v) at 2×10⁶ cells/mL. 100 uL of the cell suspension were then added to each well of 96-well plate. 100 uL of purified anti-PD-1 antibodies from Example 2 were added to each well of the 96-well plate and incubated for 2 hours on ice. […] The samples were washed three times with FACS buffer, and 100 uL fixation buffer (4% paraformaldehyde v/v) were added to each well and incubated for 10 minutes. The cells were then washed twice with FACS buffer and resuspended in 100 uL FACS buffer. The mean fluorescence intensity (MFI) was determined using FACS Calibur (BD), and the results are shown in FIGS. 7-8 and in Tables 10-11.

[5] = molecular target: T2, human PD-1^ECD-hFc protein (Immunogen A); assay: ELISA, coated human PD-1ECD-hFc; antibody 0.01 nM
Protocol: as §1

[6] = molecular target: T3, full length human PD-1 on cells; assay: flow cytometry, CHO-K1-hPD-1 cells; antibody 0.1 nM
Source text: as §3

[7] = molecular target: T1, cyno PD-1^ECD-hFc protein; assay: ELISA, coated cyno PD-1ECD-hFc; antibody 10 nM
Protocol: as §1

[8] = molecular target: T2, human PD-1^ECD-hFc protein (Immunogen A); assay: ELISA, coated human PD-1ECD-hFc; antibody 100 nM
Protocol: as §1

[9] = molecular target: T2, human PD-1^ECD-hFc protein (Immunogen A); assay: protein-based receptor-ligand blocking ELISA: coated PD-1ECD-hFc, blocked ligand biotinylated PD-L1ECD, streptavidin-HRP
Protocol: as §2

[10] = molecular target: T2, human PD-1^ECD-hFc protein (Immunogen A); assay: ELISA, coated human PD-1ECD-hFc; antibody 1 nM
Protocol: as §1

[11] = molecular target: T1, cyno PD-1^ECD-hFc protein; assay: ELISA, coated cyno PD-1ECD-hFc; antibody 1 nM
Protocol: as §1

[12] = molecular target: T2, human PD-1^ECD-hFc protein (Immunogen A); assay: ELISA, coated human PD-1ECD-hFc; antibody 0.1 nM
Protocol: as §1

T1 sequence (B0LAJ3 entry or part of it limits assumed): as the sequence (Q15116 25-167) above, with D2E, P10A, V19L, T35A, Q75R counted along it

| OD450 nm [1] | IC50 (read off the curve) [2] | OD450 nm [3] | Mean fluorescence intensity [4] | OD450 nm [5] | Mean fluorescence intensity [6] | OD450 nm [7] | OD450 nm [8] | IC50 (read off the curve) [9] | OD450 nm [10] | OD450 nm [11] | OD450 nm [12] | Binder |
| --- | --- | --- | --- | --- | --- | --- | --- | --- | --- | --- | --- | --- |
| 0.14 | ~1 nM | 0.56 | 166 | 0.65 | 36.2 | 1.62 | 3.05 | ~0.9 nM | 3.07 | 1.4 | 2.43 | chimeric anti-PD-1 antibody 76G5B3 (antibody, V domains shown, Purified from hybridoma of Harbour H2L2 mice: human variable regions, rat constant regions) VH: QVQLVESGGGVVQPGRSLRLSCAASGFTFSDYGFHWVRQAPGKGLEWVAVIWYDGSNEYYTDSVKGRFTISRDNSKNTLYLQMNSLRAEDTAMYFCVVNPFDYWGQGTLVTVSS VL: DIQMTQSPSSLSAFVGDRVTITCRASQGINHYLAWYQQKPGKAPNLLILAASTLLSGVPSRFGGRGSGTDFTLIISSLQPEDVATYYCQKYDSAPYTFGQGTKLEIK |
| 0.1 | ~2 nM | 0.29 | 51.1 | 0.55 | 13.2 | 1.51 | 3.05 | ~1 nM | 3.02 | 1.03 | 2.11 | chimeric anti-PD-1 antibody 32B5C7 (antibody, V domains shown, Purified from hybridoma of Harbour H2L2 mice: human variable regions, rat constant regions) VH: EVQLLESGGGLVQPGGSLRLSCAASGFTFSSYAMSWVRQAPGKGLEWVSTISGSGGTTYYADSVKGRFTISRDNSKNTLYLQMNSLRAEDTAVYYCTLTGDPDYWGQGTLVTVSS VL: EIVLTQSPATLSLSPGERATLSCRASQSVSSYLAWYQQKPGQAPRLLIYDASKRATGIPARFSGSGSGTDFTLTISSLEPEDFAVYYCQQRNNWPLTFGGGTKVEIK |
| 0.27 | ~0.6 µg/mL | 0.972 | 166 | 0.669 | 22.8 | 2.63 | 2.73 | ~0.4 µg/mL | 2.83 | 2.45 | 1.77 | chimeric anti-PD-1 antibody 21G8F11 (antibody, V domains shown, Purified from hybridoma of Harbour H2L2 mice: human variable regions, rat constant regions) VH: EVQLLESGGGLAQPGGSLRLSCAASGFSFNTYLMHWVRQAPGKGLEWVSAISGGGGNTYYADSVKGRFTISRDNSKNTLYLQMNSLRAEDTAVYYCAKENRIPVAPFDYWGQGTLVTVSS VL: DIQMTQSPSTLSASVGDRVTITCRASQSISTWLAWYQQKPGKAPKLLIYKASSLESGVPSRFSGSGSGTEFTLTISSLQPDDLATYYCQQYNSFSWTFGQGTKVEIK |
